According to PMC11161652, “ASXLs binding to the PHD2/3 fingers of MLL4 provides a mechanism for the recruitment of BAP1 to active enhancers” (Nature Communications, 2024):
Like-named read-outs stand apart in the source and are kept apart here. Ends that are not written are not given here.

T1: MLL4PHD2/3 (Homo sapiens, UniProt O14686)
T1 construct: MLL4 (aa 227-324); GST (N, cleaved yes); made in house; host or cells: E. coli BL21-CodonPlus
T1 sequence (O14686 227-324): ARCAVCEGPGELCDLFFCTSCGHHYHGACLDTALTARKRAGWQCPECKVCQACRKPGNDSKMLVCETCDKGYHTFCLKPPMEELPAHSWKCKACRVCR

T2: MLL3PHD2/3 (Homo sapiens, UniProt Q8NEZ4)
T2 construct: human MLL3 (aa 342-439); GST (N, cleaved yes); made in house; host or cells: E. coli BL21-CodonPlus
T2 sequence (Q8NEZ4 342-439): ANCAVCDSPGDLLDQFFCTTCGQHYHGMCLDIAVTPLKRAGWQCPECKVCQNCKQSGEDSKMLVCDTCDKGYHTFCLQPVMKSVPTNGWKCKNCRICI

T3: PHD2 and PHD3 fingers of human MLL3 (aa 342-439) (human, UniProt Q8NEZ4 342-439)
T3 construct: PHD2 and PHD3 fingers of human MLL3 (KMT2C), aa 342-439; 15N-labelled for NMR titrations; also used unlabelled as the titrant against MLL3 PHD4; also called MLL3_(PHD2/3); MLL3 PHD2/3; source: E. coli BL21-CodonPlus, purified (glutathione agarose, PreScission cleavage; unlabeled proteins also SEC)
T3 sequence (looked up): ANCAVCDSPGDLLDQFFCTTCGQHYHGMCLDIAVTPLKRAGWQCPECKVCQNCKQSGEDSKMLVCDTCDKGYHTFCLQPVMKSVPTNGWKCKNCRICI

T4: PHD2 and PHD3 fingers of human MLL4 (aa 227-324) (human, UniProt O14686 227-324)
T4 construct: PHD2 and PHD3 fingers of human MLL4 (KMT2D), aa 227-324; also called MLL4_(PHD2/3); MLL4 PHD2/3; source: E. coli BL21-CodonPlus, purified (glutathione agarose, PreScission cleavage; unlabeled proteins also SEC)
T4 sequence (looked up): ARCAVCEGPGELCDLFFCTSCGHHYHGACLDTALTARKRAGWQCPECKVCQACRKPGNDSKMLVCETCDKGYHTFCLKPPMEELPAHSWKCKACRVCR

T5: PHD2 and PHD3 fingers of human MLL3 (aa 342-439) (human, UniProt Q8NEZ4 342-439)
T5 chain: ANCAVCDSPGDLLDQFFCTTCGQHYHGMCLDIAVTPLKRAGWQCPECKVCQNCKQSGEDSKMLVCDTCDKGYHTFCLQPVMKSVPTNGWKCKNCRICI

B1: ASXL3 peptide (aa 1047-1067) (peptide, UniProt Q9C0F0 1047-1067, looked up)
peptide: RNTGARTLADIKARAQQARAQ
notes: ASXL3, residues 1047-1067; also called ASXL3 (aa 1047-1067); source: synthetic peptide (SynPeptide)
B2: ASXL2 peptide (aa 650-670) I660E (peptide, UniProt Q76L83 650-670, looked up)
peptide: NRTGARTLADEKAKAQLVKAQ
notes: ASXL2, residues 650-670; also called I660E mutant of ASXL2; source: synthetic peptide (SynPeptide)
B3: ASXL2 peptide, residues 650-664 (peptide, UniProt Q76L83 650-664, looked up)
peptide: NRTGARTLADIKAKA
notes: ASXL2, residues 650-664; also called ASXL2_(650-664); ASXL2 (aa 650-664); source: synthetic peptide (SynPeptide)
B4: ASXL2 peptide, residues 656-670 (peptide, UniProt Q76L83 656-670, looked up)
peptide: TLADIKAKAQLVKAQ
notes: ASXL2, residues 656-670; also called ASXL2_(656-670); ASXL2 (aa 656-670); source: synthetic peptide (SynPeptide)

Key:
[1] = target: T1, MLL4PHD2/3; test: NMR titration binding, WT MLL4PHD2/3; conditions: 0.1 mM protein; for binding in NMR titration (CSPs): 1H,15N HSQC, pH 6.8, 298 K, in words
Experimental: (§1) All constructs were expressed in BL21-CodonPlus competent cells.
(§2) For NMR titration experiments, ^1H,^15N HSQC spectra of 0.1 mM uniformly ^15N-labeled WT or mutated MLL4PHD2/3, MLL3PHD2/3 or MLL3PHD4 were recorded while WT or mutated ASXL2 (aa 650-670, 650-664, 656-670) and ASXL3 (aa 1047-1067) peptides (synthesized by SynPeptide) or MLL3PHD2/3 were added stepwise. All experiments were carried out in 20 mM Tris buffer (pH 6.8), 150 mM NaCl, and 3 mM DTT, containing 7% D2O. The dissociation constants (Kds) were determined by a nonlinear least-squares analysis in GraphPad Prism using the equation:1 △δ=△δmaxL+P+Kd−L+P+Kd^2−4PL/2P where [L] is concentration of the peptide, [P] is concentration of the protein, Δδ is the observed chemical shift change, and Δδmax is the normalized chemical shift change at saturation. Normalized chemical shift changes were calculated using the equation Δδ=△δH^2+△sn/5^2 (2), where Δδ is the change in chemical shift in parts per million (ppm).

[2] = target: T2, MLL3PHD2/3; test: NMR titration binding, WT MLL3PHD2/3; conditions: 0.1 mM protein
Experimental: as §1, §2

[3] = system: GST-MLL3PHD2/3; test: GST pull-down, WT MLL3PHD2/3; type: binding, human; conditions: WT GST-MLL3PHD2/3; HEK293FT lysate, 3 h at 4 °C, western blot; n = 3
Experimental: (§3) Pull-down assays were performed by mixing resin-bound GST-MLL3PHD2/3 and GST-MLL4PHD2/3 (wild type and mutants) with lysates of HEK293FT expressing Myc-ASXL1, Myc-ASXL2 or Myc-ASXL2ΔMBH. Pellets of HEK293FT cells transfected with the appropriate pDEST expression construct (15 μg/dish using polyethylenimine (PEI)) were lysed with 10 times their volume of lysis buffer (50 mM Tris pH 7.3, 100 mM NaCl, 1 mM DTT, 1 mM EDTA, 1 mM PMSF, 0.1% Tween20, 1/100 anti-protease (Sigma)) and sonicated with a probe sonicator (Branson digital sonifier 450) calibrated at 40% amplitude for 3–4 rounds during 40–60 s. Lysates were then centrifuged in a Sorvall Lynx 6000 (rotor: F21-8x50Y) at 15,000 RPM during 20 min. Approximatively 9 μg of purified GST-fusion proteins bound to GSH resin (Sigma, G4510) were used for each condition. Final volume of GSH resin was adjusted to 30 μl per condition with empty GSH beads and incubated with 1.5 mL of HEK293FT lysate expressing Myc-ASXL1, Myc-ASXL2 or Myc-ASXL2ΔMBH for 3 h at 4 °C on a rotative system. A fraction of the reaction mixture (80 μL) was collected as the input. After the incubation, beads were washed 5 times and mixed with 100 μL of Laemmli buffer. Samples were loaded on 8% or 15% SDS-acrylamide gels and processed for western blotting.

[4] = system: GST-MLL4PHD2/3; test: GST pull-down, WT MLL4PHD2/3; type: binding, human; conditions: WT GST-MLL4PHD2/3; HEK293FT lysate, 3 h at 4 °C, western blot; n = 3
Experimental: as §3

[5] = system: MLL4PHD2/3 or MLL3PHD2/3 mutants; test: GST pull-down, mutated MLL3/4PHD2/3; type: binding, human; conditions: mutated GST-MLL3/4PHD2/3; HEK293FT lysate, 3 h at 4 °C, western blot; n = 3
Experimental: as §3

[6] = target: T3, PHD2 and PHD3 fingers of human MLL3 (aa …); test: other fluorescence titration; tryptophan fluorescence, 25 °C; 1.0 µM MLL4 PHD2/3 or MLL3 PHD2/3 with increasing peptide; excitation 295 nm; 20 mM Tris pH 7.2, 150 mM NaCl, 1 mM TCEP, 0.02% Tween20; average of three measurements; conditions: both partners purified
[7] = target: T4, PHD2 and PHD3 fingers of human MLL4 (aa …); test: as above; conditions: both partners purified
[8] = target: T5, PHD2 and PHD3 fingers of human MLL3 (aa …)
[9] = target: T4, PHD2 and PHD3 fingers of human MLL4 (aa …); test: not stated; fluorescence spectroscopy or NMR: the legends of Fig. 3c and Fig. 4b say that values marked (a) are from NMR and the others from fluorescence; the text does not tell which for these pairs; conditions: both partners purified
[10] = NMR, 1H,15N HSQC titration, 20 mM Tris pH 6.8, 150 mM NaCl, 298 K

Row | Molecule | binding in NMR titration (CSPs) [1] | Kd [6] | Kd [7] | further results
1 | ASXL1 peptide: ASXL1 peptide; the ASXL1 region encompassing residues 607-627 (GWTGARTLADIKARALQVRGA) | large CSPs, confirming formation of the complex |  |  | 
2 | ASXL2 K661E: K661E mutated ASXL2 peptide (residues 650-670) (NRTGARTLADIEAKAQLVKAQ) | abrogated binding |  |  | Kd [1, 10]: no binding; binding in NMR titration (CSPs) ([2]; 1H,15N HSQC, pH 6.8, 298 K, in words): did not form the complex; Kd [2, 10]: no binding
3 | RNTGARTLADIKARAQQARAQ [ASXL3 1047-1067] | large CSPs, confirming formation of the complex |  |  | 
4 | full-length ASXL1: full-length ASXL1 expressed in HEK293FT cells |  |  |  | association in pull-down [3]: detected; association in pull-down [4]: detected; association in pull-down [5]: not with the MLL4PHD2/3 or MLL3PHD2/3 mutants
5 | B1 |  | 0.9 µM | 1.4 µM | 
6 | B2 |  |  |  | Kd [8]: 84 µM; Kd [9]: 1100 µM; binding result [6]: binds
7 | B3 |  | 28 µM | 98 µM | 
8 | B4 |  | 133 µM | 700 µM | 
